# Source: the Human Domainome abundance scans (Beltran et al. 2025)
# ± gives the uncertainty stated by the source.
# B1: Transcription intermediary factor 1-beta, residues 620 to 671; numbered along this chain, Q13263 (parent)
# chain: TLDDSATICRVCQKPGDLVMCNQCEFCFHLDCHLPALQDVPGEEWSCSLCHV
# Variants of: B1
# Assay: abundance fitness (aPCA) (normalised: wild type 0, dead -1); higher = more abundant; growth selection in yeast, the domain comes from the species named
# Settings: Homo sapiens
row,Variant,abundance fitness
1,G42L,-0.086 ± 0.092
2,G42M,-0.091 ± 0.14
3,G42P,-0.085 ± 0.13
4,G42Q,-0.028 ± 0.22
5,G42R,-0.074 ± 0.099
6,G42S,-0.265 ± 0.13
7,G42T,0.174 ± 0.12
8,G42V,-0.107 ± 0.099
9,G42W,-0.302 ± 0.14
10,G42Y,-0.421 ± 0.21
11,E43A,0.035 ± 0.11
12,E43C,-0.129 ± 0.12
13,E43D,0.088 ± 0.17
14,E43H,0.062 ± 0.22
15,E43I,-0.092 ± 0.14
16,E43L,-0.085 ± 0.086
17,E43N,-0.089 ± 0.37
18,E43P,-0.032 ± 0.14
19,E43Q,-0.298 ± 0.19
20,E43S,-0.007 ± 0.095
21,E43V,-0.165 ± 0.086
22,E43W,-0.2 ± 0.1
23,E43Y,-0.486 ± 0.22
24,E44A,-0.226 ± 0.11

row,Variant,abundance fitness
1,E44C,0.058 ± 0.15
2,E44F,-0.412 ± 0.2
3,E44G,-0.042 ± 0.11
4,E44I,-0.35 ± 0.18
5,E44K,-0.172 ± 0.13
6,E44L,-0.253 ± 0.087
7,E44M,-0.058 ± 0.12
8,E44N,-0.16 ± 0.2
9,E44P,-0.369 ± 0.13
10,E44Q,-0.057 ± 0.13
11,E44R,-0.08 ± 0.095
12,E44S,-0.07 ± 0.11
13,E44T,-0.164 ± 0.14
14,E44V,-0.217 ± 0.085
15,E44Y,-0.143 ± 0.23
16,W45A,0.051 ± 0.13
17,W45C,-0.283 ± 0.11
18,W45D,-0.506 ± 0.14
19,W45E,-0.158 ± 0.14
20,W45F,-0.342 ± 0.16
21,W45G,-0.137 ± 0.086
22,W45H,-0.103 ± 0.2
23,W45I,-0.254 ± 0.16
24,W45L,-0.195 ± 0.091

row,Variant,abundance fitness
1,W45M,-0.296 ± 0.2
2,W45N,-0.377 ± 0.3
3,W45Q,-0.085 ± 0.22
4,W45R,-0.131 ± 0.089
5,W45T,-0.54 ± 0.16
6,W45V,-0.236 ± 0.099
7,W45Y,-0.202 ± 0.19
8,S46A,0.128 ± 0.077
9,S46C,-0.116 ± 0.091
10,S46E,0.111 ± 0.082
11,S46F,-0.129 ± 0.11
12,S46H,-0.113 ± 0.14
13,S46I,-0.01 ± 0.12
14,S46K,0.155 ± 0.1
15,S46L,-0.003 ± 0.078
16,S46M,0.082 ± 0.1
17,S46N,0.018 ± 0.13
18,S46P,-0.208 ± 0.13
19,S46Q,0.118 ± 0.094
20,S46R,-0.101 ± 0.074
21,S46T,-0.09 ± 0.11
22,S46V,0.059 ± 0.072
23,S46W,-0.131 ± 0.098
24,S46Y,-0.245 ± 0.12

row,Variant,abundance fitness
1,C47D,-0.456 ± 0.12
2,C47E,-0.295 ± 0.088
3,C47G,-0.33 ± 0.075
4,C47H,-0.572 ± 0.14
5,C47I,-1.05 ± 0.22
6,C47K,-0.466 ± 0.11
7,C47L,-0.864 ± 0.1
8,C47M,-0.794 ± 0.12
9,C47N,-0.382 ± 0.12
10,C47P,-0.484 ± 0.12
11,C47Q,-0.636 ± 0.14
12,C47R,-0.552 ± 0.079
13,C47S,-0.343 ± 0.083
14,C47T,-0.565 ± 0.11
15,C47V,-0.807 ± 0.089
16,C47W,-0.951 ± 0.11
17,C47Y,-0.736 ± 0.17
18,S48A,-0.112 ± 0.1
19,S48C,-0.324 ± 0.2
20,S48D,-0.242 ± 0.17
21,S48E,-0.014 ± 0.12
22,S48F,-0.45 ± 0.18
23,S48G,-0.071 ± 0.083
24,S48H,0.052 ± 0.21

row,Variant,abundance fitness
1,S48I,-0.798 ± 0.2
2,S48L,-0.409 ± 0.097
3,S48M,0.386 ± 0.1
4,S48N,-0.114 ± 0.28
5,S48P,0.152 ± 0.12
6,S48Q,-0.234 ± 0.18
7,S48R,0.105 ± 0.087
8,S48T,-0.217 ± 0.1
9,S48V,-0.508 ± 0.085
10,S48W,0.057 ± 0.13
11,S48Y,-0.094 ± 0.14
12,L49A,0.205 ± 0.076
13,L49C,-0.282 ± 0.14
14,L49D,0.277 ± 0.1
15,L49E,0.389 ± 0.092
16,L49F,0.192 ± 0.12
17,L49G,0.334 ± 0.066
18,L49H,0.496 ± 0.15
19,L49I,-0.045 ± 0.14
20,L49K,0.27 ± 0.11
21,L49M,0 ± 0.092
22,L49N,0.46 ± 0.13
23,L49P,0.1 ± 0.098
24,L49Q,0.263 ± 0.12

row,Variant,abundance fitness
1,L49R,0.219 ± 0.075
2,L49S,0.303 ± 0.08
3,L49T,0.301 ± 0.086
4,L49V,-0.09 ± 0.082
5,L49W,0.066 ± 0.076
6,L49Y,0.131 ± 0.12
7,C50A,-0.112 ± 0.096
8,C50D,-0.183 ± 0.17
9,C50E,-0.232 ± 0.12
10,C50F,-0.315 ± 0.18
11,C50G,-0.278 ± 0.098
12,C50K,-0.1 ± 0.16
13,C50L,-0.797 ± 0.11
14,C50M,-0.65 ± 0.19
15,C50N,-0.505 ± 0.35
16,C50P,0.037 ± 0.15
17,C50Q,-0.329 ± 0.16
18,C50R,-0.214 ± 0.11
19,C50S,-0.462 ± 0.12
20,C50T,-0.386 ± 0.13
21,C50V,-0.513 ± 0.1
22,C50Y,-1.03 ± 0.34
23,H51C,-0.281 ± 0.22
24,H51D,0.041 ± 0.11

row,Variant,abundance fitness
1,H51E,0.107 ± 0.15
2,H51F,-0.452 ± 0.24
3,H51G,-0.302 ± 0.096
4,H51I,-0.264 ± 0.18
5,H51K,-0.415 ± 0.17
6,H51L,-0.063 ± 0.12
7,H51M,0.021 ± 0.13
8,H51N,-0.528 ± 0.21
9,H51P,0.248 ± 0.17
10,H51Q,0.148 ± 0.16
11,H51R,0.081 ± 0.11
12,H51S,0.109 ± 0.11
13,H51T,0.31 ± 0.17
14,H51V,-0.023 ± 0.094
15,H51W,-0.345 ± 0.19
16,H51Y,-0.553 ± 0.41
17,V52A,0.197 ± 0.14
18,V52C,-0.289 ± 0.31
19,V52D,-0.267 ± 0.23
20,V52F,-0.18 ± 0.19
21,V52G,-0.32 ± 0.19
22,V52H,-0.479 ± 0.44
23,V52I,-0.354 ± 0.13
